Data published in publication PMC2744881 (Journal of molecular biology, 2009).

T1: SufD of the purified SufB-SufC-SufD complex (E. coli, UniProt P77689 1-423)
T1 sequence: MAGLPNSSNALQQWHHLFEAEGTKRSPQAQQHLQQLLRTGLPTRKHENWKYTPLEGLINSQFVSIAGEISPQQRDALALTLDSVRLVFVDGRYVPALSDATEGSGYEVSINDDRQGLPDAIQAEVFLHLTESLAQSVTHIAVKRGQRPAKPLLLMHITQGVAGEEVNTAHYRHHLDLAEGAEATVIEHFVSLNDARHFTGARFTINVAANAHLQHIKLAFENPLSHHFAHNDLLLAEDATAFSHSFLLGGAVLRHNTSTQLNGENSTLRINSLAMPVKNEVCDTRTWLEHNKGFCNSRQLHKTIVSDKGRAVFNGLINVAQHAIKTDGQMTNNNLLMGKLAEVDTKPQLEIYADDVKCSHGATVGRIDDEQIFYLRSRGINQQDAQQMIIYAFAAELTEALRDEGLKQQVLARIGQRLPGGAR

T2: N-terminally His10-tagged SufC protein (E. coli, UniProt P77499 1-248)
T2 sequence (looked up): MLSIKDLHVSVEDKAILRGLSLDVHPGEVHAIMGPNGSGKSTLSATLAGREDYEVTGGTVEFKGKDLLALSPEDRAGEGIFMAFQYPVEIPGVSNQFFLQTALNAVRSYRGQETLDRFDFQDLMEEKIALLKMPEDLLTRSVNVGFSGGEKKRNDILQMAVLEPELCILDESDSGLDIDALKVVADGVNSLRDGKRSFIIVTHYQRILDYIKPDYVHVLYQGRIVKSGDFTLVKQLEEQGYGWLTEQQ

B1: SufB of the purified SufB-SufC-SufD complex (natural protein, E. coli, UniProt P77522 1-495, looked up)
chain: MSRNTEATDDVKTWTGGPLNYKEGFFTQLATDELAKGINEEVVRAISAKRNEPEWMLEFRLNAYRAWLEMEEPHWLKAHYDKLNYQDYSYYSAPSCGNCDDTCASEPGAVQQTGANAFLSKEVEAAFEQLGVPVREGKEVAVDAIFDSVSVATTYREKLAEQGIIFCSFGEAIHDHPELVRKYLGTVVPGNDNFFAALNAAVASDGTFIYVPKGVRCPMELSTYFRINAEKTGQFERTILVADEDSYVSYIEGCSAPVRDSYQLHAAVVEVIIHKNAEVKYSTVQNWFPGDNNTGGILNFVTKRALCEGENSKMSWTQSETGSAITWKYPSCILRGDNSIGEFYSVALTSGHQQADTGTKMIHIGKNTKSTIISKGISAGHSQNSYRGLVKIMPTATNARNFTQCDSMLIGANCGAHTFPYVECRNNSAQLEHEATTSRIGEDQLFYCLQRGISEEDAISMIVNGFCKDVFSELPLEFAVEAQKLLAISLEHSVG

Tests used:
[1] = biological target: T1, SufD of the purified SufB-SufC-SufD …; assay: SEC
[2] = biological target: B1; assay: SEC
crystal structure = biological target: the molecule itself; assay: crystal structure
[3] = biological target: T2, N-terminally His10-tagged SufC protein; assay: SEC
SEC = biological target: the molecule itself; assay: SEC

Row | stoichiometry N [1] | Binder | stoichiometry N (SEC) | also measured
1 | ~2 | SufC of the purified SufB-SufC-SufD complex (natural protein, E. coli) MLSIKDLHVSVEDKAILRGLSLDVHPGEVHAIMGPNGSGKSTLSATLAGREDYEVTGGTVEFKGKDLLALSPEDRAGEGIFMAFQYPVEIPGVSNQFFLQTALNAVRSYRGQETLDRFDFQDLMEEKIALLKMPEDLLTRSVNVGFSGGEKKRNDILQMAVLEPELCILDESDSGLDIDALKVVADGVNSLRDGKRSFIIVTHYQRILDYIKPDYVHVLYQGRIVKSGDFTLVKQLEEQGYGWLTEQQ | – | stoichiometry N [2]: ~2
2 | – | SufD protein (natural protein, E. coli, UniProt P77689 1-423, looked up) MAGLPNSSNALQQWHHLFEAEGTKRSPQAQQHLQQLLRTGLPTRKHENWKYTPLEGLINSQFVSIAGEISPQQRDALALTLDSVRLVFVDGRYVPALSDATEGSGYEVSINDDRQGLPDAIQAEVFLHLTESLAQSVTHIAVKRGQRPAKPLLLMHITQGVAGEEVNTAHYRHHLDLAEGAEATVIEHFVSLNDARHFTGARFTINVAANAHLQHIKLAFENPLSHHFAHNDLLLAEDATAFSHSFLLGGAVLRHNTSTQLNGENSTLRINSLAMPVKNEVCDTRTWLEHNKGFCNSRQLHKTIVSDKGRAVFNGLINVAQHAIKTDGQMTNNNLLMGKLAEVDTKPQLEIYADDVKCSHGATVGRIDDEQIFYLRSRGINQQDAQQMIIYAFAAELTEALRDEGLKQQVLARIGQRLPGGAR | – | stoichiometry N (crystal structure): 2; stoichiometry N [3]: ~1
3 | – | wild-type SufD (reference of the gel filtration of His-tagged SufD proteins) (natural protein, E. coli) MAGLPNSSNALQQWHHLFEAEGTKRSPQAQQHLQQLLRTGLPTRKHENWKYTPLEGLINSQFVSIAGEISPQQRDALALTLDSVRLVFVDGRYVPALSDATEGSGYEVSINDDRQGLPDAIQAEVFLHLTESLAQSVTHIAVKRGQRPAKPLLLMHITQGVAGEEVNTAHYRHHLDLAEGAEATVIEHFVSLNDARHFTGARFTINVAANAHLQHIKLAFENPLSHHFAHNDLLLAEDATAFSHSFLLGGAVLRHNTSTQLNGENSTLRINSLAMPVKNEVCDTRTWLEHNKGFCNSRQLHKTIVSDKGRAVFNGLINVAQHAIKTDGQMTNNNLLMGKLAEVDTKPQLEIYADDVKCSHGATVGRIDDEQIFYLRSRGINQQDAQQMIIYAFAAELTEALRDEGLKQQVLARIGQRLPGGAR | 2 | –
4 | – | N-terminal His-tag SufD with H360C mutation (natural protein, E. coli) MAGLPNSSNALQQWHHLFEAEGTKRSPQAQQHLQQLLRTGLPTRKHENWKYTPLEGLINSQFVSIAGEISPQQRDALALTLDSVRLVFVDGRYVPALSDATEGSGYEVSINDDRQGLPDAIQAEVFLHLTESLAQSVTHIAVKRGQRPAKPLLLMHITQGVAGEEVNTAHYRHHLDLAEGAEATVIEHFVSLNDARHFTGARFTINVAANAHLQHIKLAFENPLSHHFAHNDLLLAEDATAFSHSFLLGGAVLRHNTSTQLNGENSTLRINSLAMPVKNEVCDTRTWLEHNKGFCNSRQLHKTIVSDKGRAVFNGLINVAQHAIKTDGQMTNNNLLMGKLAEVDTKPQLEIYADDVKCSCGATVGRIDDEQIFYLRSRGINQQDAQQMIIYAFAAELTEALRDEGLKQQVLARIGQRLPGGAR | 2 | –
5 | – | N-terminal His-tag SufD with H360S mutation (natural protein, E. coli) MAGLPNSSNALQQWHHLFEAEGTKRSPQAQQHLQQLLRTGLPTRKHENWKYTPLEGLINSQFVSIAGEISPQQRDALALTLDSVRLVFVDGRYVPALSDATEGSGYEVSINDDRQGLPDAIQAEVFLHLTESLAQSVTHIAVKRGQRPAKPLLLMHITQGVAGEEVNTAHYRHHLDLAEGAEATVIEHFVSLNDARHFTGARFTINVAANAHLQHIKLAFENPLSHHFAHNDLLLAEDATAFSHSFLLGGAVLRHNTSTQLNGENSTLRINSLAMPVKNEVCDTRTWLEHNKGFCNSRQLHKTIVSDKGRAVFNGLINVAQHAIKTDGQMTNNNLLMGKLAEVDTKPQLEIYADDVKCSSGATVGRIDDEQIFYLRSRGINQQDAQQMIIYAFAAELTEALRDEGLKQQVLARIGQRLPGGAR | 2 | –
6 | ~1 | B1 | – | –
